Patent publication US20260234738A1 (Regeneron, published 2026)
Numbering of substitutions follows the chain as printed. Where “and” joins values, the source holds several entries; their conditions need not be identical. Equal entries are not always repeated.

Target: SARS-COV-2 Spike protein receptor binding domain (amino acids Arg319-Phe541) expressed with the Fc p (SARS-CoV-2)

B1: mAb10936 (antibody, V domains shown)
VH: QVQLVESGGGVVQPGRSLRLSCAASGFTFRNYGMHWVRQAPGKGLEWVSVIWYDGSNRYYADSVKGRFTISRDTSKNTLYLQMNSLRAEDTAVYYCARDPPITGTTGGDAFDIWGQGTMVTVSS
VL: not shown
IC50: 0.0875 nM and 0.071 nM

B2: mAb10930 (antibody, V domains shown)
VH: EVQLVESGGGLVQPGRSLRLSCAASGFTFDDYAMYWVRQAPGKGLEWVSGISWNSGSIGYADSVKGRFTISRDNAKNSLYLQMNSLRAADTALYYCAKDKDWNSRGYYYYGMDVWGQGTTVTVSS
VL: not shown
IC50: 0.282 nM

B3: mAb10966 (antibody, V domains shown)
VH: EVQLVESGGGLVQPGGSLRLSCAASGLTVSSNYMSWVRQAPGKGLEWVSVIYSGGSTFYADSVKGRFTISRDNSKNTLYLQMNSLRPEDTAVYYCAREGRIAATGYGMDVWGQGTTVTVSS
VL: not shown
IC50: 0.16 nM

B4: mAb10913 (antibody, V domains shown)
VH: EVQLVESGGGLVQPGGSLRLSCAASGFTFRNYEMNWVRQAPGKGLEWVSYITSSGSTMYYADSVKGRFTISRDNAKNSLYLQMNSLRAEDTAVYYCARDGFYYYYAMDVWGQGTTVTVSS
VL: QSVLTQPPSVSAAPGQKVTISCSGSSSNIGNNYVSWYQQLPGTAPKLLIYDNNKRPSGIPDRFSGSKSGTSATLGITGLQTGDEADYYCGTWDSSLSVGRVFGTGTKVTVLG
IC50: 0.217 nM

B5: mAb10934 (antibody, V domains shown)
VH: not shown
VL: DIQMTQSPSSLSASVGDRVTITCQASQDIWNYINWYQQKPGKAPKLLIYDASNLKTGVPSRFSGSGSGTDFTFTISSLQPEDIATYYCQQHDDLPPTFGQGTKVEIKR
IC50: 0.066 nM and 0.0597 nM

B6: mAb10967 (antibody, V domains shown)
VH: EVQLVESGGGLVQPGGSLRLSCAASGFTVSSNYMSWVRQAPGKGLEWVSVIYPGGSTFYADSVKGRFTISRDNSKNTLYLQMNSLRAEDTAVYYCARDQRDFAWGQGTLVTVSS
VL: B5 VL with W30S, I33L, K55E, S77G, H91Y, D93N, K103R, V104L
IC50: 0.28 nM

B7: mAb10938 (antibody, V domains shown)
VH: EVQLVESGGGLVQPGGSLRLSCAVSGFTVSSNYMSWVRQAPGKGLEWVSLIYSGGSTFYADSVKGRFTISRHNSKNTLYLQMNSLRAEDTAVYYCAREGGYSYDYNYWGQGTLVTVSS
VL: B5 VL with W30R, I33L, K55E, S65I, H91Y, D93N, P96I, K103R, V104L
IC50: 0.275 nM

B8: mAb10955 (antibody, V domains shown)
VH: EVQLVESGGGLVQPGGSLRVSCAASGFTVSRNYMSWVRQAPGKGLEWVSVIYSGGSTFYADSVKGRFTISRDNSKNTLYLQMNSLRAEDTAIYYCARYIPRFDPWGQGTLVTVSS
VL: B5 VL with W30S, I33L, Y36F, K42R, K55E, H91Y, D93N, P96I, K103R, V104L
IC50: 0.141 nM

B9: mAb10935 (antibody, V domains shown)
VH: EVQLVESGGGLVQPGGSLRLSCAASGFTVSSNYMSWVRQAPGKGLEWVSLIYSGGSTYYADSVKGRFTISRHNSKNTLYLQMNSLRSEDTAVYYCARVPLGDYYYGMDVWGQGTTVTVSS
VL: B5 VL with W30N, N31K, I33L, K55E, H91S, D93N, P96L, Q100G
IC50: 0.102 nM and 0.0694 nM

B10: mAb10954 (antibody, V domains shown)
VH: EVQLVESGGGLVQPGGSLRLSCAASGITVSSNYMSWVRQAPGKGLEWVSLIYSGGSTYYADSVKGRFTISRDNSKNTLYLQMNSLRVEDTAVYYCARDHGMAAAGYNYWGQGTLVTVSS
VL: B5 VL with W30N, N31K, I33L, K55E, S76N, I83F, Y87F, H91Y, D93N, T97A
IC50: 0.0711 nM

B11: mAb10939 (antibody, V domains shown)
VH: EVQLVESGGGLVQPGGSLRLSCAASGLTVSSNYMNWVRQVPGKGLEWVSVIYSGGSKFYVDSVKGRFTISRHNSKNTLYLQMNSLRPEDTAVYYCTRDAQYYGMDVWGQGTTVTVSS
VL: DIQMTQSPSSLSASVGDRVTITCRASQSISTYLHWYQQKPGEAPKLLIYAASSLQSGVPSRFSGSGSGTDFTLTISSLQPEDFATYYCQQSYSTPPEIFGQGTKLEIKR
IC50: 0.175 nM and 0.263 nM

B12: mAb10984 (antibody, V domains shown)
VH: EVQLVESGGGLVQPGGSLRLSCAASGLTVNRNYMSWVRQAPGKGLEWVSLIYSGGSTYYADSVKGRFTISRDNSKNTLYLQMNSLRLEDTAVYYCARGELGIPYGMDVWGQGTTVTVSS
VL: QSVLTQPPSVSAAPGQKVTISCSGSSSNIGNNYVSWYQQLPGTAPKLLIYDNNKRPSGIPDRFSGSKSGTSATLGITGLQTGDEADYYCGTWDSSLSAGVFGGGTKLTVLG
IC50: 0.0775 nM

B13: mAb10915 (antibody, V domains shown)
VH: EVQLVESGGGLVQPGGSLRLSCAASGFTVSSNYMNWVRQAPGKGLEWVSVIYSGGSTFYADSVKGRFTISRHNSKNTLYLQMNSLRPEDTAVYYCARDLGGYFDYWGQGTLVTVSS
VL: not shown
IC50: 0.321 nM

B14: mAb10965 (antibody, V domains shown)
VH: EVQLVESGGGLIQPGGSLRLSCAASVFTVSYNYMSWVRQAPGKGLEWVSVIYSGGSTYYADSVKGRFTISRDNSKNTLYLQMNSLRAEDTAVYYCARALPGWGGSFEYFDYWGQGTLVTVSS
VL: not shown
IC50: 0.213 nM

B15: mAb10921 (antibody, V domains shown)
VH: EVQLVESGGGLVQPGGSLRLSCAASGITVSSNYMSWVRQAPGKGLEWVSVIYSGGSTFYADSVKGRFTISRHNSKNTLYLQMNSLRAEDTAVYYCARERNFDAFDIWGQGTMVTVSS
VL: DIQMTQSPSSVSASVGDRVTITCRASQGISSWLAWYQQKPGKAPKLLIYAASSLQSGVPSRFSGSGSGTDFTLTISSLQPEDFATYYCQQANSFPLFTFGPGTKVDIKR
IC50: 0.433 nM and 0.507 nM

B16: mAb10937 (antibody, V domains shown)
VH: QITLKESGPTLVKPTQTLTLTCTFSGFSLSTNVVGVGWIRQPPGKALEWLALIYWNDDKRYSPSLKSRLTITKDTSKNQVVLTMTNMDPVDTATYYCAHGPTGDYFDYWGQGTLVTVSS
VL: not shown
IC50: 0.0649 nM

B17: mAb10982 (antibody, V domains shown)
VH: EVQLVESGGGLVQPGGSLRLSCAASGLTVSSNYMSWVRQAPGKGLEWVSVIYSGGTTYYADSVKGRFTISRHNSKNTLSLQMNSLRAEDTAVYYCARGEGANYYGMDVWGQGTTVTVSS
VL: QSVLTQPPSVSGAPGQRVTISCTGSSSNIGTGYDVHWYQQLPGTAPKLLIYGNSNRPSGVPDRFSGSKSGTSASLAITGLQAEDEADYYCQSYDSSLSGYVVFGGGTKLTVLG
IC50: 0.116 nM

B18: mAb10985 (antibody, V domains shown)
VH: EVQLVESGGGLVQPGRSLRLSCAASGFTFDDYAMHWVRQAPGKGLEWVSGISWNRGSIGYADSVKGRFTISRDNAKNSLYLQMSSLRAEDTALYYCAKDGERWDSVVVPSARNGMDVWGQGTTVTVSS
VL: B17 VL with T31A, Y100S, V101Y, G105T, L109V
IC50: 0.0696 nM and 0.0411 nM

B19: mAb10932 (antibody, V domains shown)
VH: EVQLVESGGGLVQSGGSLRLSCAASGLTVSSNYMSWVRQAPGKGLEWVSVIYSGGSTFYSDSVKGRFTISRHNSKNTLYLQMNSLRAEDTAVYYCARARGDAFDIWGQGTMVTVSS
VL: not shown
IC50: 0.373 nM

B20: mAb10923 (antibody, V domains shown)
VH: QVQLVQSGAEVKKPGASVKVSCKASGYTFINYYIHWVRQAPGQGLEWMGWINPNSGGTNYAQKFQGRVTMTRDTSISTAYMELSRLRSDDTAVYYCAIITIFGVVTWFDPWGQGTLVTVSS
VL: not shown
IC50: 0.149 nM and 0.184 nM

B21: mAb10920 (antibody, V domains shown)
VH: QVQLVESGGGVVQPGRSLRLSCAASGFTFSYYGMHWVRQAPGKGLEWVAVIWYDGSNKFYADSVKGRFTISRDNSKNTLYLQMNSLRAEDTAVYYCAAARPGYYYGMDVWGQGTTVTVSS
VL: DIQMTQSPSSLSASVGDRVTITCRASQGISNYLAWFQQKPGKAPNSLIYAASSLQRGVPSKFSGSGSGTDFTLTISSLQPEDFATYYCQQYNSYPRTFGQGTKVEIKR
IC50: 0.338 nM and 0.139 nM

B22: mAb10964 (antibody, V domains shown)
VH: QVQLQESGPGLVKPSETLSLTCTVSGGSINNYYWIWIRQPPGKGLEWIGYIYHSGSTNYNPSLKSRVTISVDTSKNQFSLKVSSVTAADTAVYYCANMVRGVYEDDYWGQGTLVTVSS
VL: DIQMTQSPSSLSASVGDRVTITCRASQSISNYLNWYQQKPGKAPKLLIFAASSLRSGVPSRFSGSGSGTDFTLTISSLHPEDFATYYCQQNYNTPLTFGPGTKVDIKR
IC50: 0.0683 nM and 0.0625 nM

B23: mAb10914 (antibody, V domains shown)
VH: EVQLVESGGGLVQPGGSLRLSCAASGLIVSRNYMIWVRQAPGKGLEWVSVIYSGGSTFYADSVKGRFTISRHNSKNTLYLQMNSLRAEDTAVYYCARDLGTGGMDVWGQGTTVTVSS
VL: DIQLTQSPSFLSASVGDRVTITCWASQGISSYLAWYQQKPGKAPKLLIYAASTLQSGVPSRFSGSGSGTEFTLTISSLQPEDFATYYCQQLNSYPLTFGGGTKVEIKR
IC50: 0.98 nM

B24: mAb10957 (antibody, V domains shown)
VH: B23 VH with L27V, I28T, R31S, I35S, H72D, Y79F, A87I, T101P, G102Y
VL: B15 VL with M4L, S10F, V11L, W32Y, S53T, D70Q, T72I, A91L, F94Y, L96G
IC50: 0.169 nM

B25: mAb10956 (antibody, V domains shown)
VH: B23 VH with I28T, R31S, I35S, H72D, G100I, T101K, G102Y
VL: not shown
IC50: 0.185 nM

B26: mAb10971 (antibody, V domains shown)
VH: EVQLVESGGGLIQPGGSLRLSCAASGVTVSSNYMSWVRQAPGKGLEWVSVIYSGGSTFYSDSVKGRFSISRDNSKNTLYLQMNSLRAEDTAVYYCARDLYYYGMDVWGQGTTVTVSS
VL: DIQLTQSPSFLSASVGDRVTITCRASQGISTYLAWYQQKPGKAPKLLIYAASTLQSGVPSRFSGSGSGTEFTLTISSLQPEDFATYYCQQLDSYPGLTFGGGTKVEIKR
IC50: 0.149 nM
